The target in data set [1] is T1, CodY (native, in cell) (Lactococcus lactis subsp. cremoris …, UniProt A2RHP2 A2RHP2:1-262).
T1 sequence: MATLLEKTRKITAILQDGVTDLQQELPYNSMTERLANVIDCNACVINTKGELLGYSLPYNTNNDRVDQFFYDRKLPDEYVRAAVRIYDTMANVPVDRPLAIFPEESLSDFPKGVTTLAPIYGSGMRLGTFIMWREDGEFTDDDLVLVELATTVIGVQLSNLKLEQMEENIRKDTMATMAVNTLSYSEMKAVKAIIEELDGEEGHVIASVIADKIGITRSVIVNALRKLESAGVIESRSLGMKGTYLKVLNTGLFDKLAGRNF
In words: cell_activity. The following applies: 8-fold for prtM::lacZ; less than 2-fold in codY mutant; scale: fold repression.

For data set [2], the target named is T2, CodY (H6-CodY) (Lactococcus lactis subsp. cremoris …, UniProt A2RHP2 A2RHP2:1-262).
T2 sequence: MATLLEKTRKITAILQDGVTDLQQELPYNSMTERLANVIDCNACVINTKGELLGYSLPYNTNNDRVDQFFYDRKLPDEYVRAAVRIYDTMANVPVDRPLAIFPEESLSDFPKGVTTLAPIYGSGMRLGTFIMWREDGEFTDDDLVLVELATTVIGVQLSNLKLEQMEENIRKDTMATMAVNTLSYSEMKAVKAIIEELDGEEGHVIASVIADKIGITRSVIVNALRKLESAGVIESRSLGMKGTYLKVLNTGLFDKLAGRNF
In words: EMSA; no binding at any protein amount. The conditions noted are these: tags: N-terminal His6 (pNH6CodY, nisin-induced in L. lactis NZ9000, Ni-NTA); chain copies: multimer, dimer or tetramer by cross-linking (stated); label: 32P 5'-end. As for the experimental part:
(§1) BSA (1 μg) and poly(dI-dC) (Amersham Pharmacia Biotech) were added to the reaction mixtures in order to reduce non-specific interactions. After incubation for 15 min at 30° C., samples were loaded onto a 4% polyacrylamide gel. Electrophoresis was performed in the Protean II Minigel System (Bio Rad Laboratories B. V., Veenendaal, The Netherlands) using a gradient (0.5× to 2×) of TAE buffer (Sambrook, Fritsch, and Maniatis, 1989) at 150 V for 1.5 h. Gels were dried and used for autoradiography at −80° C. using Kodak XAR-5 films and intensifying screens.
The upstream oppD region contains a small sequence that is inversely repeated with a spacing of 9 base pairs in between (FIG. 1). This region of dyad symmetry is located just upstream of the −35 promoter sequence. To determine whether this region is important for the interaction with CodY, a stepwise deletion analysis of the oppD upstream region was performed. Radioactively labeled deletion fragments of the region, obtained by PCR, were incubated with H6-CodY. […]
Different parts of the oppD promoter region were amplified by PCR (panel A), radioactively labelled and incubated with no (lanes 1), 20 ng (lanes 2) or 200 ng (lanes 3) of His6-CodY protein, respectively (panel B). […] Cells were harvested in the exponential phase of growth and β-galactosidase activity was measured (solid bars). […]
For orientation: A gel shift assay detects complexes by their altered migration in electrophoresis.

The target of data set [3] is T1, CodY (native, in cell). In words: cell_activity; lacZ reporter in L. lactis LL108. The source says:
(§2) The fact that H6-CodY was unable to form a protein-DNA complex when a probe was used that lacks the upstream arm of this IR (probe 1 in FIG. 3) implies that this area might serve as an operator site for CodY on PoppD. To study this region in more detail, site directed mutations were introduced by PCR using combinations of oligonucleotide opp1 with oligonucleotides opp14 (WT), opp15(a), opp(15b) or opp2, respectively (FIG. 4A). The PCR products were ligated upstream of the promoterless lacZ reporter gene in pORI13 and introduced into L. lactis LL108. […] When the unchanged half-site was replaced by an unrelated sequence (an XbaI endonuclease site, present in opp2), repression was reduced approximately 30-fold (in cells growing exponentially in rich medium) and H6-CodY binding was completely abolished (as shown in FIG. 3).
(§3) FIG. 4D: Promoter activity of PoppD variants. L. lactis LL108 strains carrying the lacZ reporter plasmids were grown in GM17 medium. Cells were harvested in the exponential phase of growth and β-galactosidase activity was measured (solid bars). […] Open bars indicate a quantitative representation of the DNA binding assay shown in panel C. The relative binding affinity of H6-CodY for the PoppD variants was calculated by comparing the intensity of the shifted, H6-CodY bound complexes with the total radioactive signal in each lane in the presence of 100 ng protein.

The target of data set [4] is T2, CodY (H6-CodY). As to the kind of experiment: EMSA; affinity order WT > opp15(a) > opp15(b). The following applies: tags: N-terminal His6 (pNH6CodY, nisin-induced in L. lactis NZ9000, Ni-NTA); chain copies: multimer, dimer or tetramer by cross-linking (stated); label: 32P 5'-end.
From the text: as §2, §3

Data set [5] has as its target T2, CodY (H6-CodY). In words: EMSA; multiple retarded bands, four with 10-100 ng; 5 mM MgCl2, 100 mM KCl, pH 8.0, 30 C; Ile (0.6 or 2.5 mM) stimulates, Val/Leu 0.6 mM reduce shift and 2.5 mM give. The following applies: tags: N-terminal His6 (pNH6CodY, nisin-induced in L. lactis NZ9000, Ni-NTA); chain copies: multimer, dimer or tetramer by cross-linking (stated); label: 32P 5'-end. As for the experimental part:
as §1, with “Gel retardation experiments were carried out essentially as described by Ebbole and Zalkin (Ebbole et al., 1989). Purified PCR products (2 μg) were end-labelled with polynucleotide kinase (Amersham Pharmacia Biotech) for 1 h at 37° C. using 30 μCi [γ-³²P]-ATP (Amersham Pharmacia Biotech) in a volume of 20 μl. Reactions were stopped by incubating the mixtures for 10 min at 70° C. […] BSA” for “BSA”
In order to examine whether L. lactis CodY directly interacts with upstream DNA sequences of its main target known so far, oppD, in vitro DNA binding studies were performed. For this purpose, histidine-tagged CodY was overexpressed using the nisin inducible gene expression system (Kuipers et al., 1998) and subsequently purified to apparent homogeneity. A radioactively labeled PCR fragment spanning the oppD upstream region (FIG. 1) was used as a probe. […]

Data set [6] deals with T2, CodY (H6-CodY). As to the kind of experiment: EMSA; 20 or 200 ng H6-CodY. The following applies: tags: N-terminal His6 (pNH6CodY, nisin-induced in L. lactis NZ9000, Ni-NTA); chain copies: multimer, dimer or tetramer by cross-linking (stated); label: 32P 5'-end. As for the experimental part: Gel retardation experiments were carried out essentially as described by Ebbole and Zalkin (Ebbole et al., 1989). Purified PCR products (2 μg) were end-labelled with polynucleotide kinase (Amersham Pharmacia Biotech) for 1 h at 37° C. using 30 μCi [γ-³²P]-ATP (Amersham Pharmacia Biotech) in a volume of 20 μl. Reactions were stopped by incubating the mixtures for 10 min at 70° C. Binding studies were carried out in 20 μl reaction volumes containing 20 mM Tris-HCl (pH 8.0), 8.7% (v/v) glycerol, 1 mM EDTA (pH 8.0), 5 mM MgCl₂, 100 mM KCL, 0.5 mM DTT, labelled DNA fragment (3000 cpm), and purified His6-CodY protein (50-400 ng). BSA (1 μg) and poly(dI-dC) (Amersham Pharmacia Biotech) were added to the reaction mixtures in order to reduce non-specific interactions. After incubation for 15 min at 30° C., samples were loaded onto a 4% polyacrylamide gel. Electrophoresis was performed in the Protean II Minigel System (Bio Rad Laboratories B. V., Veenendaal, The Netherlands) using a gradient (0.5× to 2×) of TAE buffer (Sambrook, Fritsch, and Maniatis, 1989) at 150 V for 1.5 h. Gels were dried and used for autoradiography at −80° C. using Kodak XAR-5 films and intensifying screens.
The upstream oppD region contains a small sequence that is inversely repeated with a spacing of 9 base pairs in between (FIG. 1). This region of dyad symmetry is located just upstream of the −35 promoter sequence. […]

Molecule “prtP/prtM intergenic region BGMN1-5 (330 bp)” yielded an activity with CodY (native, in cell) [1] of 6.

B1: oppD probe 1 / opp2 (160 bp, upstream arm removed) (dsDNA)
DNA 1: AACTGCAGGAAAATTCATGAACATACC
DNA 2: GGTATGTTCATGAATTTTCCTGCAGTT
On to B1, for which the binding result in the data set with CodY (H6-CodY) [2] is recorded as “no binding”.

B2: opp15(b) mutant oppD fragment (154 bp) (dsDNA)
DNA 1: AACTGCAGCGTACTGTGCCGAAAATTCATGAACATACC
DNA 2: GGTATGTTCATGAATTTTCGGCACAGTACGCTGCAGTT
Turning to B2, the activity with CodY (native, in cell) [3] was above 20 fold derepression vs WT.

B3: opp14 WT oppD fragment (154 bp) (dsDNA)
DNA 1: ATGTTCAGAAAATTCATGAACAT
DNA 2: ATGTTCATGAATTTTCTGAACAT
B3: the binding result in the data set with CodY (H6-CodY) [4] was “binds”.

B4: oppD promoter fragment opp162 (probe 3, opp1-opp3 PCR) (dsDNA)
DNA 1: ATGTTCAGAAAATTCATGAACAT
DNA 2: ATGTTCATGAATTTTCTGAACAT
For the molecule B4, the binding result with CodY (H6-CodY) [5] is “binds”.

B5: opp15(a) mutant oppD fragment (154 bp) (dsDNA)
DNA 1: AACTGCAGCGTAATATTTAGAAAATTCATGAACATACC
DNA 2: GGTATGTTCATGAATTTTCTAAATATTACGCTGCAGTT
Consider B5, for which the activity with CodY (native, in cell) [3] is around 7 fold derepression vs WT.

B6: oppD probe 2 (-111 to +75) (dsDNA)
DNA 1: ATGTTCAGAAAATTCATGAACAT
DNA 2: ATGTTCATGAATTTTCTGAACAT
For B6, the binding result with CodY (H6-CodY) [6] is listed as “binds”.
